Measurements published in patent US20240010722A1 (published 2024).

T1: human MAdCAM (human, UniProt Q13477 19-317, limits assumed)
T1 construct: also called huMAdCAM; human MAdCAM-1
T1 sequence (looked up): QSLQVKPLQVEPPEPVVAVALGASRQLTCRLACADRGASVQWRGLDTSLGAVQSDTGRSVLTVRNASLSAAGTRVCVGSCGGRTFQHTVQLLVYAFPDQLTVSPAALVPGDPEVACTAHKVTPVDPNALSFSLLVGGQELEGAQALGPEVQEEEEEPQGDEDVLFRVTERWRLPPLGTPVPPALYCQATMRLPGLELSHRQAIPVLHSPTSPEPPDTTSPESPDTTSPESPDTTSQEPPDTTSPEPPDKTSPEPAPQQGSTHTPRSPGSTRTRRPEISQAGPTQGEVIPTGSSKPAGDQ


biological target: T1, human MAdCAM; assay: BLI (Octet), binder on anti-human Fc tips

Kd [nM]	fold reduction of affinity against PRNT1 [fold]	koff [s⁻¹]	kon [M⁻¹ s⁻¹]	Binder
119	10	0.0267	226000	MIAB182 (antibody, V domains shown, tested with human Fc; also called MIAB182-001) VH: EVQLLESGGGLVQPGGSLRLSCAASGFTFSSYWMHWVRQAPGKGLEWVSAISGSGGSTYYADSVKGRFTISRDNSKNTLYLQMNSLRAEDTAVYYCARDRPYYYYMDVWGKGTTVTVSS VL: DIQMTQSPSSLSASVGDRVTITCRASQSISRSLAWYQQKPGKAPKLLIYAASSLQSGVPSRFSGSGSGTDFTLTISSLQPEDFATYYCQQYKSYPVTFGQGTKVEIK
21.8	–	0.00969	445000	MIAB174 (antibody, V domains shown, tested with human Fc; also called MIAB174-001) VH: EVQLLESGGGLVQPGGSLRLSCAASGFTFSDYWMHWVRQAPGKGLEWISYISGDSGYTNYADSVKGRFTISRDNSKNTLYLQMNSLRAEDTAVYYCARDRPYYYYMDVWGKGTTVTVSS VL: DIQMTQSPSSLSASVGDRVTITCRASQSVSRSLAWYQQKPGKAPKLLIYAASSLQSGVPSRFSGSGSGTDFTLTISSLQPEDFATYYCQQYKSYPVTFGQGTKVEIK
563	40	0.0818	145000	MIAB184 (antibody, V domains shown, tested with human Fc; also called MIAB184-001) VH: EVQLLESGGGLVQPGGSLRLSCAASGFTFSSYWMHWVRQAPGKGLEWVSAISGSGGSTYYADSVKGRFTISRDNSKNTLYLQMNSLRAEDTAVYYCARDRPYYYYMDVWGKGTTVTVSS VL: DIQMTQSPSSLSASVGDRVTITCRASQSISSSLAWYQQKPGKAPKLLIYAASSLQSGVPSRFSGSGSGTDFTLTISSLQPEDFATYYCQQYKSYPVTFGQGTKVEIK
22.6	–	0.0106	471000	MIAB175 (antibody, V domains shown, tested with human Fc; also called MIAB175-001) VH: EVQLLESGGGLVQPGGSLRLSCAASGFTFSSYWMHWVRQAPGKGLEWISYISGDSGYTNYADSVKGRFTISRDNSKNTLYLQMNSLRAEDTAVYYCARDRPYYYYMDVWGKGTTVTVSS VL: DIQMTQSPSSLSASVGDRVTITCRASQSVSRSLAWYQQKPGKAPKLLIYAASSLQSGVPSRFSGSGSGTDFTLTISSLQPEDFATYYCQQYKSYPVTFGQGTKVEIK
218	–	0.0851	391000	MIAB177 (antibody, V domains shown, tested with human Fc; also called MIAB177-001) VH: EVQLLESGGGLVQPGGSLRLSCAASGFTFSDFWMHWVRQAPGKGLEWVSAISGSGGSTYYADSVKGRFTISRDNSKNTLYLQMNSLRAEDTAVYYCARDRPYYYYMDVWGKGTTVTVSS VL: DIQMTQSPSSLSASVGDRVTITCRASQSVSRSLAWYQQKPGKAPKLLIYAASSLQSGVPSRFSGSGSGTDFTLTISSLQPEDFATYYCQQYKSYPVTFGQGTKVEIK
519	–	0.22	372000	MIAB178 (antibody, V domains shown, tested with human Fc; also called MIAB178-001) VH: EVQLLESGGGLVQPGGSLRLSCAASGFTFSSYWMHWVRQAPGKGLEWISAISGSSGSTYYADSVKGRFTISRDNSKNTLYLQMNSLRAEDTAVYYCARDRPYYYYMDVWGKGTTVTVSS VL: DIQMTQSPSSLSASVGDRVTITCRASQSVSRSLAWYQQKPGKAPKLLIYAASSLQSGVPSRFSGSGSGTDFTLTISSLQPEDFATYYCQQYKSYPVTFGQGTKVEIK
